B1: GST-Rab5 wild-type [canine] / Myc3-iSH2-p110β (wild type) [bovine | human] (parent)
chain 1: LYEDYTRTSQEIQMKRTAIEAFNETIKIFEEQCQTQERYSKEYIEKFKREGNETEIQRIMHNYEKLKSRISEIVDSRRRLEEDLKKQAAEYREIDKRMNSIKGGGGGGGMCFSFIMPPAMADILDIWAVDSQIASDGSIPVDFLLPTGIYIQLEVPREATISYIKQMLWKQVHNYPMFNLLMDIDSYMFACVNQTAVYEELEDETRRLCDVRPFLPVLKLVTRSCDPGEKLDSKIGVLIGKGLHEFDSLKDPEVNEFRRKMRKFSEEKILSLVGLSWMDWLKQTYPPEHEPSIPENLEDKLYGGKLIVAVHFENCQDVFSFQVSPNMNPIKVNELAIQKRLTIHGKEDEVSPYDYVLQVSGRVEYVFGDHPLIQFQYIRNCVMNRALPHFILVECCKIKKMYEQEMIAIEAAINRNSSNLPLPLPPKKTRIISHVWENNNPFQIVLVKGNKLNTEETVKVHVRAGLFHGTELLCKTIVSSEVSGKNDHIWNEPLEFDINICDLPRMARLCFAVYAVLDKVKTKKSTKTINPSKYQTIRKAGKVHYPVAWVNTMVFDFKGQLRTGDIILHSWSSFPDELEEMLNPMGTVQTNPYTENATALHVKFPENKKQPYYYPPFDKIIEKAAEIASSDSANVSSRGGKKFLPVLKEILDRDPLSQLCENEMDLIWTLRQDCREIFPQSLPKLLLSIKWNKLEDVAQLQALLQIWPKLPPREALELLDFNYPDQYVREYAVGCLRQMSDEELSQYLLQLVQVLKYEPFLDCALSRFLLERALGNRRIGQFLFWHLRSEVHIPAVSVQFGVILEAYCRGSVGHMKVLSKQVEALNKLKTLNSLIKLNAVKLNRAKGKEAMHTCLKQSAYREALSDLQSPLNPCVILSELYVEKCKYMDSKMKPLWLVYNNKVFGEDSVGVIFKNGDDLRQDMLTLQMLRLMDLLWKEAGLDLRMLPYGCLATGDRSGLIEVVSTSETIADIQLNSSNVAAAAAFNKDALLNWLKEYNSGDDLDRAIEEFTLSCAGYCVASYVLGIGDRHSDNIMVKKTGQLFHIDFGHILGNFKSKFGIKRERVPFILTYDFIHVIQQGKTGNTEKFGRFRQCCEDAYLILRRHGNLFITLFALMLTAGLPELTSVKDIQYLKDSLALGKSEEEALKQFKQKFDEALRESWTTKVNWMAHTVRKDYRS
chain 2: ANRGATRPNGPNTGNKICQFKLVLLGESAVGKSSLVLRFVKGQFHEFQESTIGAAFLTQTVCLDDTTVKFEIWDTAGQERYHSLAPMYYRGAQAAIVVYDITNEESFARAKNWVKELQRQASPNIVIALSGNKADLANKRAVDFQEAQSYADDNSLLFMETSAKTSMNVNEIFMAIAKKLPKNEPQNPGANSARGRGVDLTEPTQPTRSQCCSN

Variants of: B1
Test: GST pull-down (summary table)
Details: with Myc3-iSH2-p110β (wild type) [bovine | human]; n=5; parent: 100

| Variant | percent of parent [% binding] |
| --- | --- |
| chain 2 M87A | < 25 |
| chain 2 W73A | < 25 |
| chain 2 F56A | < 25 |

Same assay, conditions: with Myc3-iSH2-p110β (wild type) [bovine | human]; n=7; parent: 100

| Variant | percent of parent [% binding] |
| --- | --- |
| chain 2 Q78L | < 25 |
| chain 2 Y88A | < 25 |

Variants of: B1
Test: GST pull-down, anti-Myc immunoblot quantification
Details: with Myc3-iSH2-p110β (wild type) [bovine | human]; GST-Rab5 fusion proteins (10 µg) on glutathione Sepharose beads, GppCp-loaded; Myc-iSH2-p110β from transfected COS-1 lysates; parent: 100; read off a plot

| Variant | percent of parent [% WT] |
| --- | --- |
| chain 2 Q78L | 20 |

Variants of: B1
Test: GST pull-down (summary table)
Details: with Myc3-iSH2-p110β (wild type) [bovine | human]; n=10; parent: 100

| Variant | percent of parent [% binding] |
| --- | --- |
| chain 2 L84A | < 25 |

Same assay, conditions: with Myc3-iSH2-p110β (wild type) [bovine | human]; n=8; parent: 100

| Variant | percent of parent [% binding] |
| --- | --- |
| chain 2 R80E | < 25 |

Same assay, conditions: with Myc3-iSH2-p110β (wild type) [bovine | human]; n=6; parent: 100

| Variant | percent of parent [% binding] |
| --- | --- |
| chain 2 Y81A | < 25 |

Same assay, conditions: with Myc3-iSH2-p110β (wild type) [bovine | human]; n=4; parent: 100

| Variant | percent of parent [% binding] |
| --- | --- |
| chain 2 I52A | < 25 |
| chain 2 R90E | < 25 |

Same assay, conditions: with Myc3-iSH2-p110β (wild type) [bovine | human]; n=9; parent: 100

| Variant | percent of parent [% binding] |
| --- | --- |
| chain 2 E79R | < 25 |
| chain 2 H82E | < 25 |

From publication PMC5700975
